Source: patent publication US12129222B2, “Production of bitter principle derivatives” (Julius-Maximilians-Universitaet Wuerzburg, priority 2016, dated 2024)
Non-standard residues stand in square brackets, D forms with d.

Target: MMP-8 (Homo sapiens, UniProt P22894)
Assay: Enzymatic peptide cleavage by matrix metalloproteinases
Format: biochemical
Details: after cleavage from the resin; activated MMP, 1 h at 37° C., pH 7.0; LC-MS
Procedure: (§1) For that, a 2-3 hour activation of the pre-MMP by p-aminophenyl mercury acetate (APMA 10 mM in 0.1 M NaOH) in a ratio of 10:1 (MMP:APMA v/v) takes place at 37° C. Subsequently, the activated MMP is added to the peptides dissolved in buffer (200 mM NaCl, 50 mM Tris-HCl, 5 mM CaCl2, 1 μM ZnCl2, 0.05% BRIJ® 35, 0.05% NaN3, pH 7.0) in defined concentrations (9 ng/ml, 45 ng/ml, 90 ng/ml, 225 ng/ml, 450 ng/ml, and 900 ng/ml) and incubated for 1 h at 37° C. The reaction is stopped by separation/filtration of the MMP by centrifugation or addition of 10 equivalents of EDTA (250 mM). The cleavage products are analyzed by liquid chromatography with masse spectrometry coupling (LC-MS).
as §1, with “concentrations” for “concentrations (9 ng/ml, 45 ng/ml, 90 ng/ml, 225 ng/ml, 450 ng/ml, and 900 ng/ml)”, “mass” for “masse”

Sequence of MMP-8 (P22894 101-467, species assumed): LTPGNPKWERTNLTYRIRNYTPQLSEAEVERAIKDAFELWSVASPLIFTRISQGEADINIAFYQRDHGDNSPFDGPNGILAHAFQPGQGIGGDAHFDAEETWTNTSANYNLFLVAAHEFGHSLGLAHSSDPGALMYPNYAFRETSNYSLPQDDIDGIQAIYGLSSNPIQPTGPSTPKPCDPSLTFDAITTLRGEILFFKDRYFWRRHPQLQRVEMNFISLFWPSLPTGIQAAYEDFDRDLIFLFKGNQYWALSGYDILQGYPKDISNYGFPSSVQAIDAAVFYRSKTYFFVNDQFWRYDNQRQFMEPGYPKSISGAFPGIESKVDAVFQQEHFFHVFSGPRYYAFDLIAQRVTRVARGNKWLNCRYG

- cleavage by matrix metalloproteinases (MMP) such as MMP-8: specifically cleaved
Substance: NH2-G-p-q-G-I-A-G-q-Q—COOH: peptide modified by replacing L by D amino acids (small letters mean D-amino acids) (H-G[dP][dQ]GIAG[dQ]Q-OH; SMILES CC[C@H](C)[C@H](NC(=O)CNC(=O)[C@@H](CCC(N)=O)NC(=O)[C@H]1CCCN1C(=O)CN)C(=O)N[C@@H](C)C(=O)NCC(=O)N[C@H](CCC(N)=O)C(=O)N[C@@H](CCC(N)=O)C(=O)O)
